Reference: US20230212587A1, “Mutant Hydroxyphenylpyruvate Dioxygenase Polypeptide, Encoding Gene Thereof and Use Therefor” (Beijing Dabeinong Biotechnology Co., Ltd., priority 2019, published 2023)

System: Arabidopsis thaliana T1 plants
Experiment: Topramezone tolerance of transgenic Arabidopsis thaliana T1 plants (pesticide damage grade by bleached leaf area, score, resistance evaluation)
Format: in vivo
Design: score: scale not given here
Conditions: HPPD from Avena sativa source; for Grade 0 / Grade 1 / Grade 2 / Grade 3: number of plants
In short: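 Eighteen days after sowing, wild-type and HPPD-transgenic T1 Arabidopsis receive a topramezone spray at 1×, 2× or 4× field rate (25–100 g ai/ha) or water. Seven days later each plant is graded by its proportion of bleached leaf area.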

Row | Molecule | Resistance Grade (topramezone 25 g ai/ha (1x)) | score (topramezone 25 g ai/ha (1x)) | Grade 0 (topramezone 25 g ai/ha (1x)) | Grade 1 (topramezone 25 g ai/ha (1x)) | Grade 2 (topramezone 25 g ai/ha (1x)) | Grade 3 (topramezone 25 g ai/ha (1x)) | Resistance Grade (topramezone 50 g ai/ha (2x)) | score (topramezone 50 g ai/ha (2x)) | Grade 0 (topramezone 50 g ai/ha (2x)) | Grade 1 (topramezone 50 g ai/ha (2x)) | Grade 2 (topramezone 50 g ai/ha (2x)) | Grade 3 (topramezone 50 g ai/ha (2x)) | Resistance Grade (topramezone 100 g ai/ha (4x)) | score (topramezone 100 g ai/ha (4x)) | Grade 0 (topramezone 100 g ai/ha (4x)) | Grade 1 (topramezone 100 g ai/ha (4x)) | Grade 2 (topramezone 100 g ai/ha (4x)) | Grade 3 (topramezone 100 g ai/ha (4x))
1 | F372L (protein, listed as Avena sativa, AsHPPD Amido Acid Sequence) MPPTPATATGAAAAAVTPEHAARSFPRVVRVNPRSDRFPVLSFHHVELWCADAASAAGRFSFALGAPLAARSDLSTGNSAHASLLLRSGALAFLFTAPYAPPPQEAATAAATASIPSFSADAARTFAAAHGLAVRSVGVRVADAAEAFRVSVAGGARPAFAPADLGHGFGLAEVELYGDVVLRFVSYPDETDLPFLPGFERVSSPGAVDYGLTRFDHVVGNVPEMAPVIDYMKGFLGFHEFAEFTAEDVGTTESGLNSVVLANNSEAVLLPLNEPVHGTKRRSQIQTYLEYHGGPGVQHIALASNDVLRTLREMRARTPMGGFEFMAPPQAKYYEGVRRIAGDVLSEEQIKECQELGVLVDRDDQGVLLQILTKPVGDRPTFFLEMIQRIGCMEKDEVGQEYQKGGCGGFGKGNFSELFKSIEDYEKSLEVKQSVVAQKS | Highly resistant | 0 | 20 | 0 | 0 | 0 | Highly resistant | 0 | 20 | 0 | 0 | 0 | Moderately resistant | 30 | 6 | 10 | 4 | 0
2 | F372T (protein, listed as Avena sativa, AsHPPD Amido Acid Sequence) MPPTPATATGAAAAAVTPEHAARSFPRVVRVNPRSDRFPVLSFHHVELWCADAASAAGRFSFALGAPLAARSDLSTGNSAHASLLLRSGALAFLFTAPYAPPPQEAATAAATASIPSFSADAARTFAAAHGLAVRSVGVRVADAAEAFRVSVAGGARPAFAPADLGHGFGLAEVELYGDVVLRFVSYPDETDLPFLPGFERVSSPGAVDYGLTRFDHVVGNVPEMAPVIDYMKGFLGFHEFAEFTAEDVGTTESGLNSVVLANNSEAVLLPLNEPVHGTKRRSQIQTYLEYHGGPGVQHIALASNDVLRTLREMRARTPMGGFEFMAPPQAKYYEGVRRIAGDVLSEEQIKECQELGVLVDRDDQGVLLQITTKPVGDRPTFFLEMIQRIGCMEKDEVGQEYQKGGCGGFGKGNFSELFKSIEDYEKSLEVKQSVVAQKS | Highly resistant | 0 | 20 | 0 | 0 | 0 | Highly resistant | 3 | 18 | 2 | 0 | 0 | Moderately resistant | 17 | 10 | 10 | 0 | 0
3 | F372S (protein, listed as Avena sativa, AsHPPD Amido Acid Sequence) MPPTPATATGAAAAAVTPEHAARSFPRVVRVNPRSDRFPVLSFHHVELWCADAASAAGRFSFALGAPLAARSDLSTGNSAHASLLLRSGALAFLFTAPYAPPPQEAATAAATASIPSFSADAARTFAAAHGLAVRSVGVRVADAAEAFRVSVAGGARPAFAPADLGHGFGLAEVELYGDVVLRFVSYPDETDLPFLPGFERVSSPGAVDYGLTRFDHVVGNVPEMAPVIDYMKGFLGFHEFAEFTAEDVGTTESGLNSVVLANNSEAVLLPLNEPVHGTKRRSQIQTYLEYHGGPGVQHIALASNDVLRTLREMRARTPMGGFEFMAPPQAKYYEGVRRIAGDVLSEEQIKECQELGVLVDRDDQGVLLQISTKPVGDRPTFFLEMIQRIGCMEKDEVGQEYQKGGCGGFGKGNFSELFKSIEDYEKSLEVKQSVVAQKS | Highly resistant | 0 | 20 | 0 | 0 | 0 | Highly resistant | 0 | 20 | 0 | 0 | 0 | Highly resistant | 0 | 20 | 0 | 0 | 0
4 | F372C (protein, listed as Avena sativa, AsHPPD Amido Acid Sequence) MPPTPATATGAAAAAVTPEHAARSFPRVVRVNPRSDRFPVLSFHHVELWCADAASAAGRFSFALGAPLAARSDLSTGNSAHASLLLRSGALAFLFTAPYAPPPQEAATAAATASIPSFSADAARTFAAAHGLAVRSVGVRVADAAEAFRVSVAGGARPAFAPADLGHGFGLAEVELYGDVVLRFVSYPDETDLPFLPGFERVSSPGAVDYGLTRFDHVVGNVPEMAPVIDYMKGFLGFHEFAEFTAEDVGTTESGLNSVVLANNSEAVLLPLNEPVHGTKRRSQIQTYLEYHGGPGVQHIALASNDVLRTLREMRARTPMGGFEFMAPPQAKYYEGVRRIAGDVLSEEQIKECQELGVLVDRDDQGVLLQICTKPVGDRPTFFLEMIQRIGCMEKDEVGQEYQKGGCGGFGKGNFSELFKSIEDYEKSLEVKQSVVAQKS | Highly resistant | 0 | 20 | 0 | 0 | 0 | Highly resistant | 3 | 18 | 2 | 0 | 0 | Moderately resistant | 27 | 8 | 8 | 4 | 0
5 | F372M (protein, listed as Avena sativa, AsHPPD Amido Acid Sequence) MPPTPATATGAAAAAVTPEHAARSFPRVVRVNPRSDRFPVLSFHHVELWCADAASAAGRFSFALGAPLAARSDLSTGNSAHASLLLRSGALAFLFTAPYAPPPQEAATAAATASIPSFSADAARTFAAAHGLAVRSVGVRVADAAEAFRVSVAGGARPAFAPADLGHGFGLAEVELYGDVVLRFVSYPDETDLPFLPGFERVSSPGAVDYGLTRFDHVVGNVPEMAPVIDYMKGFLGFHEFAEFTAEDVGTTESGLNSVVLANNSEAVLLPLNEPVHGTKRRSQIQTYLEYHGGPGVQHIALASNDVLRTLREMRARTPMGGFEFMAPPQAKYYEGVRRIAGDVLSEEQIKECQELGVLVDRDDQGVLLQIMTKPVGDRPTFFLEMIQRIGCMEKDEVGQEYQKGGCGGFGKGNFSELFKSIEDYEKSLEVKQSVVAQKS | Highly resistant | 0 | 20 | 0 | 0 | 0 | Moderately resistant | 20 | 8 | 12 | 0 | 0 | Poorly resistant | 50 | 2 | 6 | 12 | 0
6 | F372P (protein, listed as Avena sativa, AsHPPD Amido Acid Sequence) MPPTPATATGAAAAAVTPEHAARSFPRVVRVNPRSDRFPVLSFHHVELWCADAASAAGRFSFALGAPLAARSDLSTGNSAHASLLLRSGALAFLFTAPYAPPPQEAATAAATASIPSFSADAARTFAAAHGLAVRSVGVRVADAAEAFRVSVAGGARPAFAPADLGHGFGLAEVELYGDVVLRFVSYPDETDLPFLPGFERVSSPGAVDYGLTRFDHVVGNVPEMAPVIDYMKGFLGFHEFAEFTAEDVGTTESGLNSVVLANNSEAVLLPLNEPVHGTKRRSQIQTYLEYHGGPGVQHIALASNDVLRTLREMRARTPMGGFEFMAPPQAKYYEGVRRIAGDVLSEEQIKECQELGVLVDRDDQGVLLQIPTKPVGDRPTFFLEMIQRIGCMEKDEVGQEYQKGGCGGFGKGNFSELFKSIEDYEKSLEVKQSVVAQKS | Highly resistant | 0 | 20 | 0 | 0 | 0 | Highly resistant | 0 | 20 | 0 | 0 | 0 | Moderately resistant | 33 | 4 | 12 | 4 | 0
7 | F372W (protein, listed as Avena sativa, AsHPPD Amido Acid Sequence) MPPTPATATGAAAAAVTPEHAARSFPRVVRVNPRSDRFPVLSFHHVELWCADAASAAGRFSFALGAPLAARSDLSTGNSAHASLLLRSGALAFLFTAPYAPPPQEAATAAATASIPSFSADAARTFAAAHGLAVRSVGVRVADAAEAFRVSVAGGARPAFAPADLGHGFGLAEVELYGDVVLRFVSYPDETDLPFLPGFERVSSPGAVDYGLTRFDHVVGNVPEMAPVIDYMKGFLGFHEFAEFTAEDVGTTESGLNSVVLANNSEAVLLPLNEPVHGTKRRSQIQTYLEYHGGPGVQHIALASNDVLRTLREMRARTPMGGFEFMAPPQAKYYEGVRRIAGDVLSEEQIKECQELGVLVDRDDQGVLLQIWTKPVGDRPTFFLEMIQRIGCMEKDEVGQEYQKGGCGGFGKGNFSELFKSIEDYEKSLEVKQSVVAQKS | Poorly resistant | 37 | 6 | 6 | 8 | 0 | Non-resistant | 100 | 0 | 0 | 0 | 20 | Non-resistant | 100 | 0 | 0 | 0 | 20
